Results from doi:10.1101/2023.10.25.23297129 (medRxiv, 2023).

T1: wildtype human HMGCS1 (3-hydroxy-3-methylglutaryl-coenzyme A synthase) (human), Q01581
T1 chain: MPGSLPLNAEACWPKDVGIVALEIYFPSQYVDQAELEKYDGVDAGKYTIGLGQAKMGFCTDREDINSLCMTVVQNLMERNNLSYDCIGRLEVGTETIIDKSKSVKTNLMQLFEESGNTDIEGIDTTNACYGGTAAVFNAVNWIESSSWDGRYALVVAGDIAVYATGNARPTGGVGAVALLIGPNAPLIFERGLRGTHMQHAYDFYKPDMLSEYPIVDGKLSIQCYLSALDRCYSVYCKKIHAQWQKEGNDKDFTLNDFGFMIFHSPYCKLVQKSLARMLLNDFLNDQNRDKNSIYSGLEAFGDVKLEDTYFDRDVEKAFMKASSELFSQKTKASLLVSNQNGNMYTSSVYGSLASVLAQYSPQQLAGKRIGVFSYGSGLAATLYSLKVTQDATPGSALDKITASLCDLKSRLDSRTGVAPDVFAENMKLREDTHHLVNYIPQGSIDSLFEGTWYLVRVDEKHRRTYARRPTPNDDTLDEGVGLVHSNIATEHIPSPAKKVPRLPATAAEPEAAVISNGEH


Legend:
[1] = target: T1, wildtype human HMGCS1 …; test: SEC; details: remark: other sources report otherwise
SEC = target: the molecule itself; test: SEC

stoichiometry N [1] | Binder | stoichiometry N (SEC)
2 | wildtype human HMGCS1 (3-hydroxy-3-methylglutaryl-coenzyme A synthase), Q01581 1-520 (enzyme) MPGSLPLNAEACWPKDVGIVALEIYFPSQYVDQAELEKYDGVDAGKYTIGLGQAKMGFCTDREDINSLCMTVVQNLMERNNLSYDCIGRLEVGTETIIDKSKSVKTNLMQLFEESGNTDIEGIDTTNACYGGTAAVFNAVNWIESSSWDGRYALVVAGDIAVYATGNARPTGGVGAVALLIGPNAPLIFERGLRGTHMQHAYDFYKPDMLSEYPIVDGKLSIQCYLSALDRCYSVYCKKIHAQWQKEGNDKDFTLNDFGFMIFHSPYCKLVQKSLARMLLNDFLNDQNRDKNSIYSGLEAFGDVKLEDTYFDRDVEKAFMKASSELFSQKTKASLLVSNQNGNMYTSSVYGSLASVLAQYSPQQLAGKRIGVFSYGSGLAATLYSLKVTQDATPGSALDKITASLCDLKSRLDSRTGVAPDVFAENMKLREDTHHLVNYIPQGSIDSLFEGTWYLVRVDEKHRRTYARRPTPNDDTLDEGVGLVHSNIATEHIPSPAKKVPRLPATAAEPEAAVISNGEH | 
 | human HMGCS1 p.Ser447Pro (enzyme, UniProt Q01581 1-520, looked up) MPGSLPLNAEACWPKDVGIVALEIYFPSQYVDQAELEKYDGVDAGKYTIGLGQAKMGFCTDREDINSLCMTVVQNLMERNNLSYDCIGRLEVGTETIIDKSKSVKTNLMQLFEESGNTDIEGIDTTNACYGGTAAVFNAVNWIESSSWDGRYALVVAGDIAVYATGNARPTGGVGAVALLIGPNAPLIFERGLRGTHMQHAYDFYKPDMLSEYPIVDGKLSIQCYLSALDRCYSVYCKKIHAQWQKEGNDKDFTLNDFGFMIFHSPYCKLVQKSLARMLLNDFLNDQNRDKNSIYSGLEAFGDVKLEDTYFDRDVEKAFMKASSELFSQKTKASLLVSNQNGNMYTSSVYGSLASVLAQYSPQQLAGKRIGVFSYGSGLAATLYSLKVTQDATPGSALDKITASLCDLKSRLDSRTGVAPDVFAENMKLREDTHHLVNYIPQGSIDPLFEGTWYLVRVDEKHRRTYARRPTPNDDTLDEGVGLVHSNIATEHIPSPAKKVPRLPATAAEPEAAVISNGEH | 2
 | human HMGCS1 p.Met70Thr (enzyme, UniProt Q01581 1-520, looked up) MPGSLPLNAEACWPKDVGIVALEIYFPSQYVDQAELEKYDGVDAGKYTIGLGQAKMGFCTDREDINSLCTTVVQNLMERNNLSYDCIGRLEVGTETIIDKSKSVKTNLMQLFEESGNTDIEGIDTTNACYGGTAAVFNAVNWIESSSWDGRYALVVAGDIAVYATGNARPTGGVGAVALLIGPNAPLIFERGLRGTHMQHAYDFYKPDMLSEYPIVDGKLSIQCYLSALDRCYSVYCKKIHAQWQKEGNDKDFTLNDFGFMIFHSPYCKLVQKSLARMLLNDFLNDQNRDKNSIYSGLEAFGDVKLEDTYFDRDVEKAFMKASSELFSQKTKASLLVSNQNGNMYTSSVYGSLASVLAQYSPQQLAGKRIGVFSYGSGLAATLYSLKVTQDATPGSALDKITASLCDLKSRLDSRTGVAPDVFAENMKLREDTHHLVNYIPQGSIDSLFEGTWYLVRVDEKHRRTYARRPTPNDDTLDEGVGLVHSNIATEHIPSPAKKVPRLPATAAEPEAAVISNGEH | 2
 | human HMGCS1 p.Cys268Ser (enzyme, UniProt Q01581 1-520, looked up) MPGSLPLNAEACWPKDVGIVALEIYFPSQYVDQAELEKYDGVDAGKYTIGLGQAKMGFCTDREDINSLCMTVVQNLMERNNLSYDCIGRLEVGTETIIDKSKSVKTNLMQLFEESGNTDIEGIDTTNACYGGTAAVFNAVNWIESSSWDGRYALVVAGDIAVYATGNARPTGGVGAVALLIGPNAPLIFERGLRGTHMQHAYDFYKPDMLSEYPIVDGKLSIQCYLSALDRCYSVYCKKIHAQWQKEGNDKDFTLNDFGFMIFHSPYSKLVQKSLARMLLNDFLNDQNRDKNSIYSGLEAFGDVKLEDTYFDRDVEKAFMKASSELFSQKTKASLLVSNQNGNMYTSSVYGSLASVLAQYSPQQLAGKRIGVFSYGSGLAATLYSLKVTQDATPGSALDKITASLCDLKSRLDSRTGVAPDVFAENMKLREDTHHLVNYIPQGSIDSLFEGTWYLVRVDEKHRRTYARRPTPNDDTLDEGVGLVHSNIATEHIPSPAKKVPRLPATAAEPEAAVISNGEH | 2
 | human HMGCS1 p.Gln29Leu (enzyme, UniProt Q01581 1-520, looked up) MPGSLPLNAEACWPKDVGIVALEIYFPSLYVDQAELEKYDGVDAGKYTIGLGQAKMGFCTDREDINSLCMTVVQNLMERNNLSYDCIGRLEVGTETIIDKSKSVKTNLMQLFEESGNTDIEGIDTTNACYGGTAAVFNAVNWIESSSWDGRYALVVAGDIAVYATGNARPTGGVGAVALLIGPNAPLIFERGLRGTHMQHAYDFYKPDMLSEYPIVDGKLSIQCYLSALDRCYSVYCKKIHAQWQKEGNDKDFTLNDFGFMIFHSPYCKLVQKSLARMLLNDFLNDQNRDKNSIYSGLEAFGDVKLEDTYFDRDVEKAFMKASSELFSQKTKASLLVSNQNGNMYTSSVYGSLASVLAQYSPQQLAGKRIGVFSYGSGLAATLYSLKVTQDATPGSALDKITASLCDLKSRLDSRTGVAPDVFAENMKLREDTHHLVNYIPQGSIDSLFEGTWYLVRVDEKHRRTYARRPTPNDDTLDEGVGLVHSNIATEHIPSPAKKVPRLPATAAEPEAAVISNGEH | 2
